Experimental data: PMC12102759

B1: MXI1 peptide 4-19 (Max-interacting protein 1), 16-mer library wild type / SIN3A PAH2 (SIN3A PAH domain, residues 295-383) (parent)
chain 1: VKMINVQRLLEAAEFL
chain 2: SLQNNQPVEFNHAINYVNKIKNRFQGQPDIYKAFLEILHTYQKEQRNAKEAGGNYTPALTEQEVYAQVARLFKNQEDLLSEFGQFLPDA
B2: PEX5 peptide 110-125 (Peroxisomal targeting signal 1 receptor), 16-mer library wild type / PEX14 Pex14 (PEX14 PEX14, residues 16-84) (parent)
chain 1: ADLALSENWAQEFLAA
chain 2: TPGSENVLPREPLIATAVKFLQNSRVRQSPLATRRAFLKKKGLTDEEIDMAFQQSGTAADEPSSLGPAT
B3: RNF115 peptide 69-84 (E3 ubiquitin-protein ligase RNF115), 16-mer library wild type / MDM2 SWIB (MDM2 SWIB/MDM2 domain, residues 17-125) (parent)
chain 1: THFAELWGHLDHTMFF
chain 2: SQIPASEQETLVRPKPLLLKLLKSVGAQKDTYTMKEVLFYLGQYIMTKRLYDEKQQHIVYCSNDLLGDLFGVPSFSVKEHRKIYTMIYRNLVVVNQQESSDSGTSVSEN

Variants of: B1
Test: proteomic peptide phage display deep mutational scan (ProP-PD DMS): M13 P8 16-mer library selected against immobilised GST-tagged bait for four days (rounds), NGS of the eluted pools per day and pseudo-replica
Settings: with SIN3A PAH2 (SIN3A PAH domain, residues 295-383); bait immobilised on MaxiSorp plates (10 µg), library pre-cleared on GST, 2 h binding at 4 °C, five washes; one round per day, days 1-4; value from days 2 and 3; keep out of graded; scale: average fractional NGS count over selection days 2 and 3

Row | Variant | screen value
1 | chain 1 K2H | 0.00169
2 | chain 1 K2S | 0.00272
3 | chain 1 K2R | 0.000162
4 | chain 1 K2Y | 0.00178
5 | chain 1 E11P | 0
6 | chain 1 E14G | 0.00102
7 | chain 1 E14F | 0.000859
8 | chain 1 E14A | 0.0141
9 | chain 1 E14I | 0.00251
10 | chain 1 E14V | 0.0112
11 | chain 1 E14N | 0.000159
12 | chain 1 F15W | 0.000134
13 | chain 1 F15H | 2.84e-05
14 | chain 1 F15A | 0.00102
15 | chain 1 F15I | 0
16 | chain 1 F15S | 4.3e-05

Row | Variant | screen value
17 | chain 1 F15T | 9.49e-05
18 | chain 1 F15G | 4.24e-05
19 | chain 1 I4N | 0.000113
20 | chain 1 I4T | 0.000667
21 | chain 1 I4M | 0.00797
22 | chain 1 I4A | 0
23 | chain 1 I4V | 0.00213
24 | chain 1 I4H | 0.000141
25 | chain 1 I4F | 0.000274
26 | chain 1 L10A | 0
27 | chain 1 L10T | 0.000112
28 | chain 1 L9M | 0
29 | chain 1 L9T | 0
30 | chain 1 L9I | 0.00165
31 | chain 1 A13M | 8.44e-05
32 | chain 1 A13G | 3.3e-05

The remaining lines, values ahead:

Row | screen value | Variant
33 | 8.38e-05 | chain 1 M3W
34 | 0 | chain 1 M3L
35 | 0.000204 | chain 1 M3V
36 | 0 | chain 1 M3R
37 | 6.73e-05 | chain 1 M3A
38 | 9.82e-05 | chain 1 M3G
39 | 0.000299 | chain 1 V6M
40 | 0.000142 | chain 1 V6I
41 | 0 | chain 1 V6T
42 | 2.36e-05 | chain 1 V6Q
43 | 0.000529 | chain 1 R8S
44 | 0 | chain 1 R8E
45 | 0.000659 | chain 1 R8Q
46 | 0.000431 | chain 1 R8N
47 | 0.000403 | chain 1 R8G
48 | 9.12e-05 | chain 1 R8M
49 | 3.85e-05 | chain 1 L10W
50 | 0 | chain 1 Q7P
51 | 0 | chain 1 Q7M
52 | 0.00193 | chain 1 Q7W
53 | 8.06e-05 | chain 1 L16N
54 | 7.65e-05 | chain 1 L16V
55 | 0.00145 | chain 1 L16I
56 | 3.79e-05 | chain 1 L16T
57 | 0.000204 | chain 1 N5T
58 | 0.0011 | chain 1 N5M
59 | 0.00022 | chain 1 N5L

Variants of: B2
Test: as above
Settings: with PEX14 Pex14 (PEX14 PEX14, residues 16-84); bait immobilised on MaxiSorp plates (10 µg), library pre-cleared on GST, 2 h binding at 4 °C, five washes; one round per day, days 1-4; value from days 2 and 3; scale: average fractional NGS count over selection days 2 and 3

Row | Variant | screen value
60 | chain 1 L5R | 0.000218
61 | chain 1 L5D | 0
62 | chain 1 L5E | 0
63 | chain 1 L5F | 0.000301
64 | chain 1 L5I | 9.07e-05
65 | chain 1 L5N | 9.07e-05
66 | chain 1 D2S | 0
67 | chain 1 D2I | 0.000253
68 | chain 1 D2G | 0.000331
69 | chain 1 D2M | 0.000156
70 | chain 1 D2V | 0.000407
71 | chain 1 D2F | 0
72 | chain 1 F13K | 0
73 | chain 1 F13S | 9.56e-05
74 | chain 1 F13P | 0
75 | chain 1 F13G | 0
76 | chain 1 F13T | 0.0002
77 | chain 1 F13L | 0.000183
78 | chain 1 E7Q | 0.000175
79 | chain 1 L3S | 0.000293
80 | chain 1 L3R | 0
81 | chain 1 L3V | 0.000442
82 | chain 1 L3E | 0.000345
83 | chain 1 A15Y | 9.07e-05
84 | chain 1 A15T | 0.000397
85 | chain 1 A15E | 0.000302
86 | chain 1 A15G | 9.87e-05

Row | Variant | screen value
87 | chain 1 A15Q | 0
88 | chain 1 A15S | 0
89 | chain 1 A15N | 0.000268
90 | chain 1 A4S | 9.07e-05
91 | chain 1 A4G | 0
92 | chain 1 A4E | 0.000166
93 | chain 1 A4M | 0.000358
94 | chain 1 A4Y | 0.000159
95 | chain 1 A4D | 0.000198
96 | chain 1 A10M | 0
97 | chain 1 A10D | 0
98 | chain 1 A10Q | 0
99 | chain 1 A10N | 0.000118
100 | chain 1 A10P | 0.000417
101 | chain 1 A10S | 0.000299
102 | chain 1 A1L | 0.000249
103 | chain 1 A1R | 0.00015
104 | chain 1 A1W | 0
105 | chain 1 A1V | 0.000338
106 | chain 1 A1H | 0
107 | chain 1 A1K | 0.00027
108 | chain 1 E12R | 9.56e-05
109 | chain 1 E12D | 0.000116
110 | chain 1 E12Q | 0.000147
111 | chain 1 E12N | 0
112 | chain 1 E12A | 0.000448
113 | chain 1 E12K | 0.000191

More lines, now with the values ahead:

Row | screen value | Variant
114 | 5.43e-05 | chain 1 W9M
115 | 0 | chain 1 W9L
116 | 0 | chain 1 W9P
117 | 0 | chain 1 W9Q
118 | 0 | chain 1 W9T
119 | 0 | chain 1 W9G
120 | 0 | chain 1 W9Y
121 | 0.000388 | chain 1 L14A
122 | 9.56e-05 | chain 1 L14M
123 | 0.000163 | chain 1 L14W
124 | 0 | chain 1 L14G
125 | 0.000116 | chain 1 L14H
126 | 0.000156 | chain 1 S6M
127 | 0.000293 | chain 1 S6A
128 | 0.000301 | chain 1 S6Y
129 | 0 | chain 1 S6T
130 | 0 | chain 1 S6W
131 | 0.000313 | chain 1 S6I
132 | 0.000186 | chain 1 Q11I
133 | 0 | chain 1 Q11P
134 | 0 | chain 1 Q11K
135 | 0.000165 | chain 1 Q11T
136 | 0.000317 | chain 1 Q11G
137 | 7.71e-05 | chain 1 N8K
138 | 0 | chain 1 N8R
139 | 0.000147 | chain 1 N8Y
140 | 0.000134 | chain 1 N8T

Variants of: B3
Test: as above
Settings: with MDM2 SWIB (MDM2 SWIB/MDM2 domain, residues 17-125); bait immobilised on MaxiSorp plates (10 µg), library pre-cleared on GST, 2 h binding at 4 °C, five washes; one round per day, days 1-4; value from days 2 and 3; keep out of graded; scale: average fractional NGS count over selection days 2 and 3

Row | Variant | screen value
141 | chain 1 G8I | 3.49e-05
142 | chain 1 G8L | 6.83e-05
143 | chain 1 F15E | 5.35e-05
144 | chain 1 E5G | 0.00012
145 | chain 1 E5M | 4.31e-05
146 | chain 1 E5L | 5.37e-05
147 | chain 1 E5F | 4.65e-05
148 | chain 1 E5K | 0
149 | chain 1 E5P | 0
150 | chain 1 E5I | 1.29e-05
151 | chain 1 L10G | 0
152 | chain 1 L10E | 0
153 | chain 1 L10A | 0
154 | chain 1 L10P | 0
155 | chain 1 D11V | 5.15e-05
156 | chain 1 H9L | 3.74e-05
157 | chain 1 H9P | 0
158 | chain 1 L6S | 0
159 | chain 1 L6T | 0
160 | chain 1 A4R | 5.64e-05

Continued, values first:

Row | screen value | Variant
161 | 5.86e-05 | chain 1 T1K
162 | 1.6e-05 | chain 1 T1R
163 | 8.39e-05 | chain 1 T1E
164 | 3.43e-05 | chain 1 T13F
165 | 4.86e-05 | chain 1 T13E
166 | 0 | chain 1 L10Y
167 | 0.000123 | chain 1 L10W
